Legend:
human FcRH5 = target: T1, human FcRH5 (Homo sapiens, UniProt Q96RD9); assay: Affinity determination (Scatchard analysis), cells expressing human FcRH5; format: binding; conditions: FACS and Scatchard analysis
T1 construct: expressed in transfected cells; host or cells: OPM2 multiple myeloma line per text
T1 sequence (Q96RD9 16-977 Y267H/G418D/V466I/L733P/S890P): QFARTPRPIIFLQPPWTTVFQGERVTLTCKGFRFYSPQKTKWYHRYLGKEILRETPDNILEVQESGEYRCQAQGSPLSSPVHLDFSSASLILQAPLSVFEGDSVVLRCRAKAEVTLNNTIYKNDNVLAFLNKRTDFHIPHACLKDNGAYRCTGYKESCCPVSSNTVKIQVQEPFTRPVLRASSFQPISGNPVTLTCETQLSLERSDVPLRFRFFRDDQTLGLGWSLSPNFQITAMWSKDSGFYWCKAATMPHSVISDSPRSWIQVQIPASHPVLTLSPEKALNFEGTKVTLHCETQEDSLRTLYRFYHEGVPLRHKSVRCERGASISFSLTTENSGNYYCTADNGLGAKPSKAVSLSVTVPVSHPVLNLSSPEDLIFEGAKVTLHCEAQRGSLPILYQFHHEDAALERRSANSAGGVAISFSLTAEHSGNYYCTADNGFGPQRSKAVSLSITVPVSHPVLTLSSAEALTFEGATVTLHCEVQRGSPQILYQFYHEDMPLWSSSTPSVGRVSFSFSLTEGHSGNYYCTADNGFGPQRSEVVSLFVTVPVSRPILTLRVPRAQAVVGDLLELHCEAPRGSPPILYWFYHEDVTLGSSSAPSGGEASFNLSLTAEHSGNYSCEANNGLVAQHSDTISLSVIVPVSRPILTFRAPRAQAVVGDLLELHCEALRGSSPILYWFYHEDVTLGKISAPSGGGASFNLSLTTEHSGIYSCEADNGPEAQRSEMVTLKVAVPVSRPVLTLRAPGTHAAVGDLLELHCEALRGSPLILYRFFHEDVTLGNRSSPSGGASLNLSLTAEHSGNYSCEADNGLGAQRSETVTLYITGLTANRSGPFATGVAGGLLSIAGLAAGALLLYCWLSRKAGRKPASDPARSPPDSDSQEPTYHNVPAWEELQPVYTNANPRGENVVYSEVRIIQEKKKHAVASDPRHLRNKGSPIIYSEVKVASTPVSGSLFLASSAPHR
Description: To further determine binding of the FcRH5 murine antibodies and IgG clones, binding of iodinated IgG variants to OPM2 cells expressing human FcRH5 and SVT2 cells expressing cynomologous FcRH5, Scatchard analysis was performed (Table 9A).
After a four hour incubation at 4° C., cells were washed and cell pellet counts were read by a gamma counter (1470 WIZARD Automatic Gamma Counter; Perkin Elmer, Walthem, Mass.). All points were done in triplicate and counted for 10 minutes. The average CPM was used for Kd calculation using the New Ligand (Genentech, South San Francisco, Calif.) program.

cynomolgus FcRH5 = assay: Cyno X-reactivity (FACS) on stable transfected cells; format: binding; conditions: SVT2 cells stably expressing cynoFcRH5; 1.0, 0.1 or 0.01 ug Ab per million cells
Description: For additional FACS analysis of FcRH5 antibodies, 1.0 μg, 0.1 μg or 0.01 μg of antibody was titrated per million cells of BJAB cells stably expressing huFcRH5 and SVT2 cells stably expressing cynoFcRH5. Briefly, approximately 10^6 cells in 100 μl were incubated with varying amounts (1.0 ug, 01. ug or 0.01 ug) of murine Ab (‘mu1H4, mu4D10, mu6H1, mu7D11, mu9E2, mu10A8, mu140F5, or mu13G9) per million cells of BJAB cells stably expressing huFcRH5 and SVT2 cells stably expressing cynoFcRH5. Incubation with 1.0 ug/10^6 cells of the appropriate Mu IgG isotype control was used as a negative control. PE conjugated Rat anti-MuIgG1 or Rat anti-MuIgG2a+b was used as the secondary detection antibody.

cynomolgus FcRH5, sequence (as listed by the source): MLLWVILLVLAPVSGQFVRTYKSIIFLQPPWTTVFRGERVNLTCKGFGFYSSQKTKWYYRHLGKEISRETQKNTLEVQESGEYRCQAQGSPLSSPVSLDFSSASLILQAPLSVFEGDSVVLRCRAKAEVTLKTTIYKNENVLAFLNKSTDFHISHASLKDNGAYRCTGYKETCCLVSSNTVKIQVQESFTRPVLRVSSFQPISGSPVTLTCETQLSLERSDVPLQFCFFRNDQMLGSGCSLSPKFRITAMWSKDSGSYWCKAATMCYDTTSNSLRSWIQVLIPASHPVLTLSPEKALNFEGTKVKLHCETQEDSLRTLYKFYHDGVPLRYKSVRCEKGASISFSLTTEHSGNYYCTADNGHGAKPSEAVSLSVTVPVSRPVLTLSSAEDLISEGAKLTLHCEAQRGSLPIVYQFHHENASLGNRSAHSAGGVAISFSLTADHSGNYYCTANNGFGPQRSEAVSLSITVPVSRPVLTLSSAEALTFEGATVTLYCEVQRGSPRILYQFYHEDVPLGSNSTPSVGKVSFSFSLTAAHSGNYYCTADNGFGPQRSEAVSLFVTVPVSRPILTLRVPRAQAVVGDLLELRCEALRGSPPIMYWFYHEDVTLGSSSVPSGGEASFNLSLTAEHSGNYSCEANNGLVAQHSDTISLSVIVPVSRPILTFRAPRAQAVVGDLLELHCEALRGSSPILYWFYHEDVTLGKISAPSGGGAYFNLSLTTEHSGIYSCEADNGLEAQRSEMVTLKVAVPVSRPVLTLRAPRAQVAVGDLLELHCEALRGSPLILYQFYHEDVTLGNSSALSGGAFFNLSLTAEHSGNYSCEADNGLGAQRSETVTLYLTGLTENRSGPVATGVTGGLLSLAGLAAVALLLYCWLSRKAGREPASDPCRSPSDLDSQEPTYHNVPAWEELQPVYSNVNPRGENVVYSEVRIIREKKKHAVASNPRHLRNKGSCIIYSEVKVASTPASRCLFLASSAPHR

| Molecule | Binding to cells expressing FcRH5 compared with the chimera (human FcRH5) | Cross reactivity with cynomolgus FcRH5 by FACS analysis (cynomolgus FcRH5) |
| --- | --- | --- |
| hu13G9.1a: humanized 13G9 version 1; VL SEQ ID NO: 19, VH SEQ ID NO: 21 (antibody, V domains shown) VH: EVQLVQSGGGLVQPGGSLRLSCAASGYTFTNYGMNWVRQAPGKGLEWVGWVNTYTGEPTYTDDFKGRFTFSVDTSKSTVYLQMNSLRAEDTAVYYCARRSIPYYYAMDYWGQGTLVTVS VL: DIQMTQSPSSLSASVGDRVTITCKASQNVGSNVAWYQQKPGKAPKALIYSASYRYSGVPSRFSGSGSGTDFTLTISSLQPEDFATYYCQQYKTWTFGQGTKVEIKR | essentially equivalent to the chimera | – |
| 13G9: murine monoclonal antibody binding human FcRH5; variable chains SEQ ID NO: 18 and 20 (antibody, listed as Mus sp., V domains shown) VL: DIVMTQSQKIMSTSVGDRVNVTCKASQNVGSNVAWYHQKPGQSPKALIYSASYRYSGVPDRFTGSGSGTDFTLTISNVQSEDLAEYFCQQYKTWTFGGGTKLEIKR VH: EVQLVQSGPELKKPGETVKISCKASGYTFTNYGMNWVKQAPGKGLKWMGWVNTYTGEPTYTDDFKGRFAFSVETSASTVFLQINNLKNEDTATYFCARRSIPYYYAMDYWGQGTSLT | – | cross react with cynomolgus FcRH5 |
